Measured values published in paper PMC6647844.
pKd: −log10 of the molar value.

Biological target: tetra-methyl rhodamine-labeled Aβ42 (TMR-Aβ) (UniProt P05067)
Assay: other fluorescence titration

Sequence of tetra-methyl rhodamine-labeled Aβ42 (TMR-Aβ) (P05067 672-713): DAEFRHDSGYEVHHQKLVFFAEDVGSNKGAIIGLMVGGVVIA

- pKd: 5.59
Substance: granulin-3, fully reduced (rGRN-3) (from UniProt P28799 206-261) (natural protein)
